Patent US20150086555A1 (THERACLONE SCIENCES, published 2015)

B1: TCN-539 (5056_A08) (antibody, V domains shown)
VH: QVQLVESGGGVVQPGRSLRLSCAASEITFITYAMHWVRQAPGKGLEWVALISDDGSNKFYADSVKGRFTISRDNSKNTLYLQMNSLRAEDTAAYYCAREGVYFDSGTYRGYFDYWGQETLVTVSS
VL: EIVLTQSPATLSLSPGERATLSCRASQSVSSYLAWYQQKPGQAPRLLIYDASNRATGIPARFSGSGSGTDFTLTISSLEPEDFAVYYCQQRSHWPPITFGQGTRLEIK
B2: TCN-543 (5081_G23) (antibody, V domains shown)
VH: QVHLVQSGAEVRKPGDSVKVSCKTSGYTFSTYPVAWVRQVPGQGLEWMGWISTYNGNTNFAQNFQGRVTLTTDTTTNTAYMEVRSLKFDDTAVYYCARVEGSYRDFWNNQNRFDPWGQGTLVTVSS
VL: SYVLTQPPSVSVAPGQTARISCGGSNIGGKSVHWYQQKPGQAPVLVVYDDSGRPSGIPERFSGSNSGDTATLTISRVEAGDEADYFCQVWDNFGGVFGTGTKVTVL
B3: TCN-544 (5082_A19) (antibody, V domains shown)
VH: QVQLQESGPGLVKPSETLSLTCTVSRGSIGHYFWSWIRQPPGKGLEWIGYISYSGSTKYNPSLRSRVTISVDTSKNQFSLNLNSVTATDTALYYCAREDYDILTGAGPGMEVWGQGTTVTVSS
VL: QSMLTQPPSASGTPGQRVTISCSGSSSNIGSNTVNWFKHLPGTAPKLLIYRNDLRPSGVPDRFSGSKSGTSASLAISGLQSEDEADYYCATWDDSLNGFYVFGTGTKVTVL
B4: TCN-550 (5096_F06) (antibody, V domains shown)
VH: QVQLQESGPGLVKPSETLSLTCTVSGASINSHYWSWIRQPPGKGLEWIGYVYYSGSTTYNPSLKSRVTLSVDTSKNQFSLNLSSVTAADTAFYYCARHPYDVLTGSGDWFDPWGQGTLVTVSS
VL: SYVLTQAPSVSVAPGQTARITCGGNAIGSKKVHWYQHKAGQAPVLVVYDDTDRPSGIPERFSGSNSWSTATLTINRVEAGDEADYYCQVWDFTIDHVVFGGGTKLTVL
B5: TCN-536 (5095_N01) (antibody, V domains shown)
VH: QVQLQQWGAGLLKPSETLSLTCAVYGGSFSVSGYYWSWIRQPPGRGLEWIGEISHGGSTNYNPSLKSRVTISVDTTKNQFSLRLSSVTAADTAVYYCARGTDPDTEVYCRVGNCAAFDYWGQGSLVTVSS
VL: EIILAQSPGTLSLSPGERATLSCRASQFVSTRSLAWYQQRPGQAPRLLIYGASSRATGIPDRFSGSGSGTDFTLTISRLEPEDFAVYYCQHYGYSPRYAFGQGSKVEIK
B6: TCN-537 (3194_D21) (antibody, V domains shown)
VH: QVQLQQWGSGLLKPSETLSLTCAVYGGSFRDDYWTWIRQPPGKGLEWIGEINHSGRTNYNPSLKSRVTISVDTSLKQFSLKVISVTAADTAVYYCARGTSHVSRYFDWLPPTNWFDPWGQGTQVTVSS
VL: DIVLTQSPGTLSLSPGERATLSCRASQSVSSSYLAWYQQKPGQAPRLVMYGAATRATGIPDRFSGSGSGPDFTLTISRLEPEDFAMYYCQQYGNSPITFGQGTRLEIK
B7: TCN-545 (5082_I15) (antibody, V domains shown)
VH: QVQLQQWGAGLLKPSETLSLSCAVFGGSFSDYYWTWIRQPPGKGLEWIGEIKHSGRTNYNPSLESRVTISVDTSKNQFSLKLSSVTAADTAIYYCARGTDPDTEGYCRSGSCSAFDFWGQGTLVTVSS
VL: EIVLTQSPGTLSLSPGERATLSCRASHFVNYRSLAWYQQTPGQVPRLLIYGASTRATGIPDRFSGSGSGTDFTLTISRLEPEDFAVYFCQQYGGSPRYTFGQGTRLEIK
B8: TCN-551 (5243_D01) (antibody, V domains shown)
VH: EVQLVQSGSEVKKPGESLKISCKGSGYSFSNYWIGWVRHMPGKGLEWMGIIYPGDSDTRYSPSFQGQVTMSADKSSSTVYLQWSSLKASDTAIYYCARRGGHSFGYGSGGDTHSEFDSWGQGTLVTVSS
VL: QSVLTQSPSVSAAPGQKVTISCSGSDSNIGDYFVCWYQHLPGKPPQLLIYENNKRPSGIPDRFSGSKSGTSATLGITGIQTGDEADYYCATWDGSLSAWVFGGGTKLTVL
B9: TCN-534 (5249_B02) (antibody, V domains shown)
VH: QVQLVQSGAEVKKPGSSVKVSCRESGGTFNGYTITWVRQAPGQGLEWMGGIIPMMGTVNYAQKLQGRVTITTDYFTKTAYMDLNNLRSEDTAMYYCVKIRYTGQQLLWGQGTLVTVSS
VL: DIQMTQSPSTLSASIGDRVTITCRASQSIASWLAWYQQKPGKAPKLLIYEAVNLESGVPSRFSGSGSGTDFTLTISSLQPDDFATYFCQHYGTISQTFGGGTKVEIK
B10: TCN-538 (3206_O17) (antibody, V domains shown)
VH: QITLKESGPTLVKPTQTLTLTCVFSGFSLSITGVRVGWIRQPPGKALEWLALISWDDEKHYSPSLQSRLTITKDTSKNQVVLTMTNLDPVDTATYYCARSTDRGHVLRYFGWMLPGDAFDVWGQGTMVTVSS
VL: DIVMTQSPDFLPVSLGERATINCKSSQRVLYSSNNKNYLAWYQLKPGQPPKLIIYWASTRESGVPDRFSGSGSGTEFTLTISSLQAEDVAVYYCQQYYSRPYTFGQGTKLEIK
B11: TCN-535 (5246_P19) (antibody, V domains shown)
VH: QVQLVQSGSEVKKPGTSVKVSCTASGSVFTNYGISWVRQAPGQGLEWMGGIIPLFGAAKYAQKFQGRVTITADESTKTVYMELSRLTSKDTAIYFCAKAPRVYEYYFDQWGQGTPVTVSS
VL: EIVLTQSPGTLSLSPGERATLSCRASQSVSSSQLAWYQQKPGQAPRLIIYGASTRATGIPDRFSGSGSGTDFTLTIGRLEPEDFAVFFCQQYSTSPPTFGQGTKVDFK
B12: TCN-540 (5060_F05) (antibody, V domains shown)
VH: QVQLVQSGGGVVQPGRSLRLSCAASGFTFSSYAMHWVRQAPGKGLEWVAIISYDGNDQYYTDSVKGRFTISRDSSKVYLQMHRLRPEDTAVYYCAKEFETSGYFHGSFDYWGQGILVTVSS
VL: QSALTQPASVSGSPGQSITISCTGTSSDVGGYNYVSWYQQHPGKAPKLLIYEVTNWPSGVSNRFSGSKSGNTASLTISGLQAEDEADYYCSSYAGSSTWVFGGGTRVTVL
B13: TCN-504 (3251_K17) (antibody, V domains shown)
VH: QVQLQESGPGLVKPSETLSLTCAVSGVSISNIDFYWGWIRQPPGKGLEWIGNIYYTGITFYNPSLSSRVAISIDTSKNQFSLTLTSVTAADTAMYYCARHYGDSEAINDAFDIWGQGTMLTVSS
VL: EIVMTQSPATLSVSPGERATLSCRASQSVGNSLAWYQQRPGQAPRLLIYGASTRATGIPPRFSGSGSGTEFTLTISSLQTEDFAVYYCQQYINWRPLSFGGGTKVEIK
B14: TCN-548 (5092_P01) (antibody, V domains shown)
VH: QVQLQESGPGLVKPSETLSLTCTVSSGPMSDYYWSWIRQPPGKGLEWIGHVSVSHGGRTKSNPSVMSRVTISVETSKNQFSLKLTSVTAADTAVYYCARLNYYDRSGYHSPDGPSNNWFDPWGQGTLVTVSS
VL: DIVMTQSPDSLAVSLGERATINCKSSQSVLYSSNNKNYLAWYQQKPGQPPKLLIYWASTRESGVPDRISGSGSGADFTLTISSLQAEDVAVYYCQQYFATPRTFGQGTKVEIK
B15: TCN-557 (5081_A04) (antibody, V domains shown)
VH: QVQLVQSGAEVKKPGASVKVSCKASGHTFTGYYIHWVRQAPGQGLEWMGWINPDSGATSSAQNFQGRVTMTGDTSSSTAYMELSRLSFDDTAVYYCARVLFTSPFDFWGEGTLVTVSS
VL: QAVVTQEPSLAVSPGGTVTLTCGSSTGAVTRGHYPYWFQQKPGQAPRALIYDSAGNRHSWTPARFSGSLLGGKAALTLSGAQPEDEAEYYCLLSYSGVWVFGGGTKLTVL
B16: TCN-550 (5096_F06) (antibody, V domains shown)
VH: QVQLQESGPGLVKPSETLSLTCTVSGASINSHYWSWIRQPPGKGLEWIGYVYYSGSTTYNPSLKSRVTLSVDTSKNQFSLNLSSVTAADTAFYYCARHPYDVLTGSGDWFDPWGQGTLVTVSS
VL: SYVLTQAPSVSVAPGQTARITCGGNAIGSKKVHWYQHKAGQAPVLVVYDDTDRPSGIPERFSGSNSWSTATLTINRVEAGDEADYYCQVWDFTIDHVVFGGGTKLTVL
B17: TCN-547 (5092_F11) (antibody, V domains shown)
VH: QVQLQESGPGLVKPSQTLSLTCTVSGDSISSVDHYWSWIRQHPVKGLEWIGFMYYSASTYYNPSLKSRVTISTDTSKNQFSLRLSSVTAADTAVYYCARGTCAGDCSLHYYYYGLDVWGQGRTVTVSS
VL: DIQMTQSPSSLSASVGDRVTITCRASQSISSYLNWYQHKPGKAPKVLMYAVSILQSGVPSRFSGSGSGADFTLTISSLQPEDFATYYCQQSYSSPLTFGGGTKVEIK
B18: TCN-549 (5092_P04) (antibody, V domains shown)
VH: QVQLVQSGAEVKKPGASVKVSCKASGYTFTGYYMHWVRQAPGQGLEWMGWINPNSGDTNYAQKFQGRVTMTRDTSITTAYMELSSLRSDDTAVYYCARDSPYSSSWSFFDYWGQGPLVTVSS
VL: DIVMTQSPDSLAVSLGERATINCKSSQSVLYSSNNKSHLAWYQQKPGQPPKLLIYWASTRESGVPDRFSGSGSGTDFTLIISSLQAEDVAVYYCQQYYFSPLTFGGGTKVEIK
B19: TCN-556 (5089_K12) (antibody, V domains shown)
VH: QVQLVQSGAEVKKPGASVKVSCKASGYTFIGYDMHWVRQAPGQGLEWMGWINAKRGGTNYAQKFQGRVTMTRDTSISTAYMELNSLRSDDTAVYYCARGVGSRTTIFGVLNPEFDYWGQGTLVTVSS
VL: QSALTQPPSASGSPGQSVTISCTGSSSDVGGYDYVSWYQQHPGKAPKLLIYEVTKRPSGVPDRFSGSKSGNTASLTVSGLQAEDEADYYCSSYAGNYNHVFGPGTKVTVL
B20: TCN-523 (5248_A17) (antibody, V domains shown)
VH: QVQLVQSGAEVKKPGSSVKVSCKASGGSFSNYAFSWVRQAPGQGLEWMGGTIPLLGTTNYAQKFQGRVTISADQFTSTAYMELGSLRSEDTAVYYCTRRKMTTAFDSWGQGTLVTVSS
VL: QPVLTQPPSASASLGASVTLTCTLSSAYSNYKVDWYQQRPGKGPRFVMRVGTGGIVGSKGDGIPDRFSVLGSGLNRYLTIKNIQEEDESDYHCGADHGSGSNFVSPYVFGGGTKLTVL
B21: TCN-552 (5249_I23) (antibody, V domains shown)
VH: QVQVVQSGAEVKKPGSSVRVSCQASGGTFMNYAIIWVRRAPGQGLEWMGGIIPVFPTPNYAQMFQGRVTISTDESRSTSFLELTNLRYEDTAVYYCARRIYHGGNSGFDFWGQGTLVTVSS
VL: EIVLTQSPATLSLSPGERATLSCRASQSVGNYLAWYQQKPGQAPRLLIYDSSNRAPGIPARFSGSGSGTDFTLTISSLAPEDFAVYYCQQRSKWPPMYSFGHGTKLEIK
B22: TCN-553 (5261_C18) (antibody, V domains shown)
VH: QVQVVQSGTEVKKPGSSVKVSCQTSGGRFMSYAITWVRQAPGQGLEWMGGIVPVFGTANYAQKFQGRVTITTDDSTRTAYMELSSLRSEDTAVYYCGFRYGSGYGFDSWGQGTLVTVSS
VL: EIVLTQSPGTLSLSPGERATLSCRASQSVSSSYLAWYQKKPGQAPRLLIYGASTRATGIPDRFTGSGSGTDFTLSISRLEPEDFAVYYCQHFGTSVFTFGGGTKVEIK

The binders below were run against hemagglutinin on live influenza A virus, A/California/4/09 H1N1 (Influenza A virus …) (assay: cell-based or functional assay).
For B1, the “% Neutralization” value was 0%.
In the case of B2, the “% Neutralization” value is reported as 0%.
For B3, the “% Neutralization” value was 0%.
In the case of B4, the “% Neutralization” value is reported as 0%.
B5 was tested, and the “% Neutralization” value was 18.8%.
For B6, the “% Neutralization” value was 71%.
With B7 the “% Neutralization” value was 0%.
For B8, the “% Neutralization” value was 74%.
In the case of B9, the “% Neutralization” value is reported as 96.4%.
With B10 the “% Neutralization” value was 66%.
With B11 the “% Neutralization” value was 97.3%.
In the case of B12, the “% Neutralization” value is reported as 0%.
With B13 the “% Neutralization” value was 0%.

What follows are binders tested against hemagglutinin (HA) of influenza A/Japan/305/57 (H2N2) on whole virions (Influenza A virus A/Japan/305/1957(H2N2), UniProt P03451 16-562) (assay: ELISA; BCC supernatant on coated inactivated whole virions).
B14 was tested, and the “ELISA virus binding (OD450)” value was 0.09 OD450.
With B15 the “ELISA virus binding (OD450)” value was 2.7 OD450.
For B16, the “ELISA virus binding (OD450)” value was 0.06 OD450.
For B17, the “ELISA virus binding (OD450)” value was 0.07 OD450.
With B18 the “ELISA virus binding (OD450)” value was 0.08 OD450.
With B19 the “ELISA virus binding (OD450)” value was 2.41 OD450.
B20 was tested, and the “ELISA virus binding (OD450)” value was 1.62 OD450.
For B21, the “ELISA virus binding (OD450)” value was 0.71 OD450.
With B22 the “ELISA virus binding (OD450)” value was 2.54 OD450.
